assay: soluble on expression in E. coli; label from the status in PepcDB or PDB records

| Sequence | soluble on expression in E. coli |
| --- | --- |
| MGSDKIHHHHHHMSQVNALQLTGISKSFDGFKALIDADFTACWGEVHALLGENGAGKSSLMNIAAGLYAPETGTLMLDDNPVQLQGPKDASRYRIGMVHQHFKLVKPFTVAQNILLALPEQPGEGSYRKRLRMLERDIVRKAEELGFAIDPSRVVDSLSVAEQQRVEILKVLLAGARILILDEPTAVLTDQEAERLLLTVQAFARQGAAVILVTHKMADVKRYADRVTVMRGGRTIQTLDPQRVSVEQLVQLTVGESVPVAAHHPAVPGEVRLQVKDLRSVGGSALNGVNMTLRAGQIYGIAGVGGNGQAELANALMGLPQATEGDIHLAPFGDLRNASAEQRRQLRIASIPADRYGAALAGSLSVAENFGIGNIHSGHYGSFWRLGYKRLKQDAQRAVESFDVQGVRSLDQKAALLSGGNAQKLVIAREFSRDPQLVLVHSPSRGLDVRATQAVHDRLRAARDAGAAVLLISEDLDEVLALADRIGVMNGGRIVAEFDHPADRQAIGKAMVSHD | not soluble |
| MSLTTVRMTIPDDFILGAAASAWQTEGWSGKKPGQDSWPDLWYKNDRHVWHNGYGPAVATDFINRFQEDVQLMKLAGLTHYRTSINWSRFLTDYENVTVDEEYAAYYDQLFDALLANGITPMICLEHYELPGYLLEKYGGWGSKTVVELFVRYAEKVFARYHPKVTRWFTFNEPIVVQTRVYLDALRWPYEQNTSTWMQWNYHKVLATASVVKRFRELGYPGTIGCILNPEVTYPRSRAPHDLRAAEIYDLFYNRMFLDPLVHGVWPPELLALLEQHQVTWETSEEDLAVIREHTVDELGINLYYPHRVKAPSRAWHPHTPFHPAWYYEPFELPGRRMNASRGWEIYPQIIFDMAMRIKNDYRNIPWFVAESGMGVENEGQFRNREGVIDDSYRIRFISEHLWHTLRAREAGANCQGYMLWAFTDNVSPMNAFKNRYGLIEIDLQNHRARRAKASAHWFRQLGERRELVLDEGHHHHHH | soluble |
| MPQLQKEWFDTWFDTPYYHILYSNRDESEAEVFLTNLMNHMAVPKGASILDLPCGKGRHTLFLAEKGYTLTGADLSVASIALAQSHAPAGVTFLVHDLRKPAWNESFDYVLNLFTSFGYFETEAEDRAAFTTLSKALKSGGSLVIDFMNVTRAVNLLKEEETKVMEGIEFQLKRYVKDGYIHKEIRFEADNTPFFFTERVKALTLDDFKEFFTFAGLTLVDTFGSYQLDAYDAAESDRLIMIAKKLEHHHHHH | soluble |
| MGSDKIHHHHHHMLKVDPTSPELSILLANPRGFCAGVDRAISIVERALELFEPPIYVRHEVVHNRYVVENLKQRGALFIDELDQVPDNSIVIFSAHGVSQAVRKEAKNRGLKVFDATCPLVTKVHLQVTRASRKGIECILIGHEGHPEVEGTMGQYDNPKGGVYLIESPEDVNNLQVNNPDNLCFVTQTTLSVDDTLDIITALQKRFPSIEGPRKDDICYATQNRQDAVRSMSSEVDLLIVVGSKNSSNSNRLRELAEKTGTQSYLVDTAADVEAMWFDGVKKVAVTAGASAPEVLVQQVVNAIAKLAPSIITEVEGRKEDTVFAVPAELR | not soluble |
| MPETTYKYEDNEVKKKKTIFNENGYIIEELHYDKNRKEPYSYKKRYNDKGLLVESHEHTYTYEYDKNGNLVQIKRPKNSAYGGLERTTYNKAGKIIRTQTFTQNQYDKAGVKITDDSNYLKDKNGELYQSLTDYSYIYNKDGKLQEIRDNVFSSGTIKYSYEYEDGLYVKTAELVTQKFVTYYDKAGNEVKYKWITYSLGPDKPRTQLHLVFKENKRDKYGNLIYQVANRIEELDPEKKGTDVGIYEKKIIEYEYYELEHHHHHH | not soluble |
| MLTEQEKDIIKQTVPLLKEKGTEITSIFYPKMFKAHPELLNMFNQTNQKRGMQSSALAQAVMAAAVNIDNLSVIKPVIMPVAYKHCALQVYAEHYPIVGKNLLKAIQDVTGLEENDPVIQAWAKAYGVIADVFIQIEKEIYDQMMWIGFKPFKITNIKQESEDIKSFTVETEEYDFSEFTPGQYITVDVSSDKLPYRAKRHYSIVSGEKNHLTFGVKRDVTTEHEGEVSTILHDEIKEGDMINLAAPVGGFVLENTTEPQLFLGSGIGVTPLVAMYEAASAKGLDTQMVQVAENEQHLPFKDNFNSIASHHDNAKLYTHLKDKQGYIGAEELQVFLANKPEIYICGGTKFLQSMIEALKSLNYDMDRVHYETFIPRLSVAV | not soluble |
| MGSDKIHHHHHHMVGALAILMVGYSAAEAGGLRDLLEQGGLSAKVDCVAMADMLPGRLQQQEWDLVLTDDRPDLSAAQVLGLLARLGLDVPVIALVSRQDEQAAAHLIAAGVQDVLLKSDPVQLMATIRGCQRYIGHLRDLREAQLALERSEARFRAIASNLPGLVFQFVLESDGSVFFPYVSEGSRSLLGLSPDYLQKKPNSFARLIVATDVASYDQSLQDSCEHLSAWNWEGRIQAKGDMDVKWISLRATPRRTPRGAVLWDGIMLNITRNKQIELEIARSRAQLEELSAYSQKAKEQERTRIAREIHDDIGGTLTAIKCELVPCLDNSSRTPEFYRNKAEAVESLVDMVIDSTRRIALDLRPGVLDCGIVAAVQWQAREFNQRTGVSCTVACDYEDISLDGDLAVAIFRIFQEALTNIAKHANASEVRVKLAETGSQVYLEVTDNGCGITNPDMEKVNSFGIRSMRERCQQLGGQFHIQGGPLAGTEVLIRIPVNGQSTVGRESRLN | not soluble |
| MNQLIFDFAAHDYPSFDKFLGTENAELVYVLRHKHGQFIYVWGEEGAGKSHLLQAWVAQALEAGKNAAYIDAASMPLTDAAFEAEYLAVDQVEKLGNEEQALLFSIFNRFRNSGKGFLLLGSEYTPQQLVIREDLRTRMAYCLVYEVKPLTDQEKIDALASMAAARQVTVDSEIFEYLLKHWRRDMDSLMMMLDTLDNYAVTMGKRITLPLLRQLLKQQETQ | not soluble |
| MAHHHHHHMRDRVSPGMRPYRNMCASSPCGRLSHWVVALLPLPLSGTRHLLLRIPITRTHTHTHAAHATDKSEVLSSVVAPPPPPGHAALTTVYFVLVVDVGTHLSLSLSMNRDGVEDGIYVNFFGFDGKAAMLACDMYGILPENLLYLPKKMFLQTGDESEQVLLVRYTMCERSRQGTFRTLLGAKSKLIAEGKVEALWEERRRVCQGAAPCPRFTEKQLEEAAAALDTDSESDEERQVDERGMRKPPPPLPPAPPFAPDGPRGEAAAEAAATENDESPTPVTDTPFSRAPDSEPLPPPPTQASSDAGGETRRGSGTTATNDNAALAVDAKRTTQQLPNDWTQYDVVNSLELPRAHKLCSQPPSIPQAYFPRLLETLSMEEKELAAAQKELSRYSKKSARRLRARQQERSNEPSAPGRSTSLPPLSSSPAHKPATTHLHQSVELRNRRELAAVHRVAQAHLRFLSERYEQGRSIDEKMEGVATLGTLEHMLKYQKSIGVAPEFEDRLQSKMVREESRAALQQQLRESEWERAYAIEEKAQHAQEVLERERERTKGIVAEALRTQRLITDWKQVAAHRQQETHLNGVLHRSAVRHAKADAYIETKRAATGMSRYYHDQQEVHRRQLRDTIRDMMISKKFSADGVADEDNDVVA | not soluble |
| MGSDKIHHHHHHMTEYKKILVVINPTVDHQAALARAVELATKSNASITAFLSIYDFSYEMTSILSSHEREAMRQGVIDQRSAWLDTAIAPFNSAGVAIDSKVIWHNRPFESVINCALEGQYDLIVKSTHEHDKLKAVIFTPTDWHLMRKAPMPVLMVKEHDWPVAGKILCALNVASEDSEHQTLNGKIIEHAKDLATKFSADVHLVNGYPGTPVNLAIELPDFDAHAYNNNIRMQHQSRVECLAQAYDIPLDRCHVEEGLPEDVIPEVADRIDAELVILGTVGRTGFSAALIGNTAEHVIDSIRCDLLAIKPEGYVSPLAE | not soluble |
| MSLGRQEMDEHVAIETPYAIALNDRVIGSSMVLPVDLEEFGAGFLFGQGYIKKAEEIREILVCPQGRISVYADVENEEPREVIITSGCGGTGKIPKEMLEGEFAPLADYCLPFAEIKSFIREALHSSPLGPQTHCVHGCGLWNNGRLQVYHEDVGRHNAVDKVLGSILLGRASNNSAVYTTGRLTSDMVLKCARIGIPIIMSRTSPSSLGLALAKRSGATLVAYSRPERINVFNAPERILTEGHHHHHH | not soluble |
| MSRFIPIELHHASRLLNHGPTVLITSFDEQSQRRNIMAAAWSMPVEFEPPRVAIVVDKSTWTRELIEHNGKFGIVIPGVAATNWTWAVGSVSGRDEDKFNCYGIPVVRGPVFGLPLVEEKCLAWMECRLLPATSAQEEYDTLFGEVVSAAADARVFVEGRWQFDDDKLNTLHHLGAGTFVTSGKRVTAG | soluble |
| GPGSMPSGVTHSLSLSSLPVVSLLPRWHKAEVVSHRQLTPTATSAQERAKRGKTSVLAAANTAAMTATESKGFAELYHQLLQDGVQLQKELEAYYLRQEGYIRKRVAVLDEMQENIADERRCLELQHQECRAQISTTRKQAASFLSDERKVSQAVRHAQPFLAAQEAEIDKRLDELQREKEREDTALLNVMARQEALGKQEALLACRERQRFLEEQDLQKALIEMRSLNREMEERRKSLLRKHGTVADWDRKLESRERELLVCQDQLRENLKALEQEENALGIHPAQRTAVAPAVSQRTVMDDHDMSIEHDSACEEIDYED | not soluble |
| AHHHHHHMVHITLDRNTANSWLIISKDRRQVRMGDTHQNVSDNKERFSNYPMVLGAQRFSSGKMYWEVDVTQKEAWDLGVCRDSVQRKGQFSLSPENGFWTIWLWQDSYEAGTSPQTTLHIQVPPCQIGIFVDYEAGVVSFYNITDHGSLIYTFSECVFAGPLRPFFNVGFNYSGGNAAPLKLCPLKM | soluble |
| MAKRVADAQIQRETYDSNESDDDVTPSTKVASSAVMNRRKIAMPKRRMAFK | soluble |
| GVEITEGVTVTAKGNTEGNTADLAIDGDLSTYWESSNDYKWIEVDLGGIYELSKIEIFNKDEAVYKYNIYASEDGENFNKIAYKNNDNVSDSNGNMHTIDNVRAGKIRIDVVQNSNSDRVNIAEINVFGKNTGESLPEVKKIATSNFSETPWATEYEKFNSDSAYANEKTLNEIKNLVGRVIGREFKDKFIFEIRDQLNGNDVFEVSDSGDGKVLIKGNNGVSLASGFNYYLKNYCNVSYNPIMGSNLKMPETMPSVGERVVIDTPYEHRYALNFCTYSYTMSFWDWDQYEEFLDWCAMNGVNLVLDIIGQEEVLRRTLNEFGYSDEEVKEFISGPAYFAWFYMQNMTGFGGPLPNDWFEQRAELGRKMHDRMQSFGINPVLQGYSGMVPRDFKEKNQEAQTISQGGWCGFDRPDMLKTYVNEGEADYFQKVADVFYEKQKEVFGDVTNFYGVDPFHEGGNTGDLDNGKIYEIIQNKMIEHDNDAVWVIQNWQGNPSNNKLEGLTKKDQAMVLDLFSEVSPDWNRLEERDLPWIWNMLHNFGGRMGMDAAPEKLATEIPKALANSEHMVGIGITPEAINTNPLAYELLFDMAWTRDQINFRTWTEDYIERRYGKTNKEILEAWNIILDTAYKKRNDYYQGAAESIINARPGFGIKSASTWGHSKIVYDKSEFEKAIEIFAKNYDEFKDSDAFLYDFADILKQLLANSAQEYYEVMCNAYNNGNGEKFKFVSGKFLELIKLQERVLSTRPEFLIGNWIEDARTMLKDSDDWTKDLFEFNARALVTTWGSRNNADGGGLKDYSNRQWSGLTEDYYYARWEKWINGLQAELDGGAKAPNIDWFKMEYDWVNKKSDTDKLYPTEASNENLGELAKIAMESYSVTNMDKILGENES | soluble |
| MCKMEITDLIKGMESANVSDIYIFLHEDGPVAFDASAAHLLCYFPEMEMESVFCSDSKRHRIIQGFALEPVLERLAQYPCLVDDDCIRIMGVL | not soluble |

Source: the DeepSol protein solubility set
